assay: yeast display, Sf9 membrane polyspecificity reagent, FACS + sequencing; frameworks hold sequencing errors
Outline: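 Sorting gates, low and high (top ~1%), were placed on anti-HA fluorescence to track expression and on streptavidin fluorescence to track reagent binding. A clone's polyreactivity label is taken from the gate it came out of. The reagent was 10% biotinylated, detergent-solubilized Sf9 membrane, applied for 1 hour at 4 °C to galactose-induced yeast display cells.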

Row | Sequence | polyreactivity (PSR sort gate)
1 | QVQIEESGGGLVQAGGSLRLSCAASGFIFRPYAMGWYRQAPGKERELVAAITGGGSTYYADSVKGRFTISRDNAKNTVYLQMISLKPEDTAVYYCNADRRRRSGGFAGWHFQRNDYWGQGTQVTVSS | low polyreactivity
2 | QVQLVESGACLVQAGGSLRLSCAASGFIFPRNAMGWYRQAPGKERELVAAITKSGGSTYYADSVKGRFTISRDNAKNTVYLQMNSLKPEDTAVYYCAATDSATELYYRMDYWGQGTQVTVSS | high polyreactivity
3 | QVQLVESVGGLVQAGGSLRLSCAASGFIFGYNAMGWYRQAPGKERELVAAITSRGDRTYYADSVKGRFTISRDNAKNTVYLQMNSLKPEDTAVYYCAKATRGYRSPYCSIGYYYWGQGTQLTVSS | high polyreactivity
4 | QVQLVESGGGLVQAGGSLRLSCAASGGIFNINAMGWYRQAPGKERELVAGINWSDTGTYYADSVKGRFTISRDNAKNTVYLQMNSLKPEDTAVYDCAVSGYPVYITYVSYDYDYWGQGTQVTVSS | low polyreactivity
5 | QVQLVESGGGLVQAGGSLRLSCAASGRIFARYAMGWYRQAPGKERELVAAISRGGSTKYADSVKGRFTISRDNAKNTVYLQMNSLKPEDTAVYYCAGQLWGSPYGAYYAGDYWGQGTQVTVSS | low polyreactivity
6 | QVQLGESGGGLVQAGGSLRLSCAASGSIFSDYAMGWYRQAPGKERELVAAIRYRGGRTYYADSVKGRFTISRDNAKNTVYLQMNSLKPEDTAVYYCNADVIRRGGSRYSTGREFDYWGQGTQVTVSS | high polyreactivity
7 | QVQLVESGGGLVQAGGSLRLSCASSGSIFRYNAMGWYRQAPGKEREFVAAISYSGGRTYYADSLKGRFTISRDNAKNNVYLQMNIQKPEDTAVYYCAARLKRPFSGYDNWGQGTQVSVSS | high polyreactivity
8 | QGQLVESGGGLVQAGGSLRLSCAASGFIFFSNAMGWYRQEPGKERELVAAISRIGVSTYYADSVKGRFTISRDNAKNTVYLQLNSLKPEDTAVYYCAADLSDYWRGDSWGQGTLVTVSS | low polyreactivity
9 | QVQLVESGGGLVQAGGSLRLSCAASGSTFGGYAMGWYRQAPGKERELVAAITWSGDTYYADSVKGRFTISRDYAKNTVYLQMNSLKPEDTAVYYCAASYLGFHMSYDYWGQGTQVNVSS | high polyreactivity
10 | QVQLVESGGGLVQAGGSLRLSCAASGYTFFLNVMGWYRQAAGKEWELVAAISYSGGSTNYADSVKGRFTISRDNAKNTVYLQMNSLKPEDTAVYYCAVTTYSGLYGFEYWGQGTQVTVSS | low polyreactivity
11 | QVQLVESGGGLVQAGGSLRLSCAASGRIFSYYAMGWYRQAPGKERELVASITSGGSTYADSVKGRCTISRDSAKNTVYLQMNSLKREDTAVYYCAAGGKRRWPRKHYGYWGQGSQVTVSS | high polyreactivity
12 | QVQIVESGGGLVQAGGTLRISCAASGFTLYYYAMGWSRQAPGKERELVAAITSSGTSTYYADSVKGRFTISRDNAKNTVYLQMNSLKPEDTAVYYCAAVSKIYHYRAVRLDDYWGQGTQVSVSS | low polyreactivity
13 | QVQLVESGGGLVQAGGSLRLSCAASGRTFYYNAMGWYRQAPGKERQLVAAITSSGSTYYADSVKGRFTISRDNAKNTVYLQMNSLKPEDTAVYYCASVTSYSHYRLSGWYRFEYWGQGTQVTVSS | high polyreactivity
14 | QVQLVESGGGLVQAGGSLRLSCAASGSIFSSYAMGWSRQAPGKEREFVAAISTGGRTYYADSVKGRFTISRDNAKNTVYLQMNSLKPEDTAVYYCAADGPLPHKVGTHTLDYWGQGTQVTVSS | low polyreactivity
15 | QVQLVESGGGLVQAGGSLRFSCAASGSSFGANTMGWYRQAPGKERELVAGITSGARTYYADSVKGRFTISRDNAKNTVYLQMNSLKPEDTAVYYCAAKYAWRRYGYWGQGTQVTVSS | high polyreactivity
16 | QVQLVESGGGLVQAGGSLRLSCASSGRIFSQNAMGWYRQAPGKERELVAAISGGSTNYADSVKGRFTISRDNAKNPVYLQMNSLKPEDTAVYYCAADAPFKMDYWGQGTQVTVSS | low polyreactivity
17 | QVQLVESGGGLVQAGGSLRLSCAASGSTFFYKAMGWYRPAPGKERELVAVISSRGTSTYYADSVKGRFTISRDNAKNTVYLQMNSLKPEDTAVYYCAAVQIRHTATLLHKPGYYWGQGTQVTVSS | high polyreactivity
18 | QVQLVESGGGLVQAGGSLRLSCAASGRILRFYAMGWYRQAPGKERELVATISRSGGSTYYAESVKGRVTISRDNAKNTVDLQMNSLKPEDTAVDYCNAKFKGVSYKMDYWGQGTQVTVSS | high polyreactivity
19 | QVQLVESGGGLVQAGGRHRLTCAASGYTFDWYTMGWYRQAPGTERELVAAISASGVRTYYADSVKGRFTISSDNAKNSVYLQMNSLKPEDTAVYYCYRVYSTSRITEYEFDYWGQGTQVTVSS | low polyreactivity
20 | QVQLVESGGGLVQAGGSLRLSCAASGSTFRSYAMGWYRQAPGKERELVAAISSTGGSTYYADSVKCRFTISRDTAKNTVYFQMNSLKPVDTAVYYCAADFLYYEYDYWGQGTQVTVSS | low polyreactivity

Row | Sequence | polyreactivity (PSR sort gate)
21 | QVQLVESGGGLVQAGGSLRLSCAASGLIFWKYAMGWYREAPGKERELVAAITSGGSTNYADSVKGRFTISRDNAKNPVYLQMNSLKPEDTAVYYCNARSWFEYYWGQGTQVTVSS | high polyreactivity
22 | QVQLVESGGGLVQAGGSLRLSCAASGGTFRVYAMGWYRQAPGKERELVAAITGRGGSTYYADSVKGRFTISLDNAKNTVDLQMNSLKPEDTAVYYCAKDPVTTYYKYDYWGQGTQVTVSS | low polyreactivity
23 | QVQLVESGGGLVQAGGSLRLSCAASGRIFYNYAMGWYRQAPGKERELVAAISGSGGSTYYADSVKGRFTISRDNAKNTVYLQMNSLKPEDTAVYYCNARDVVYLITPYFLVYVNLDYWGQGTQVTVSS | low polyreactivity
24 | QVQLVESGGGLVQAGGSLRLSCGASGLTFPLYAMGWYRQAPGKERELVAAITFSSGSTRYADSVKGRFTISRDNAKNTGSFQMNSLKPEDTALYYCAAVWYTYRTGPWYDYWGQGTQVTVSS | high polyreactivity
25 | QVQLVESGGGLVQAGGSLRLSCAASGITFPRYAMGWYRQAPGKERELVATITRSGGGTYYADSVKGRFTISRDNAKNTVYLQMNSLKPEDTAVYYCAAGALQRGVYGYGYWGQGTQVTVSS | high polyreactivity
26 | QVQLVESGGGLVQAGGSLRLSCAASGSIFYSYAMGWYRQAPGKERELVAAINSGGRTYYADSVKGRFTISRDNAKNTVYLQMNSLKPEDTAVYYCAARHRWGRAYDYWGQGTQVTVSS | high polyreactivity
27 | QVQLVESGGGLVQAGGSLRLSCAASGSTLDIYAMGWYRQAPGKERELVATINSTGGSTYYADSVKGRFTISRDNAKNTVYLQMNSLNPEDTAVYYCAADFGLFGPTTGYIRPYDYWGQGTQVTVSS | low polyreactivity
28 | QVQLVESGGRLVQPGGSLSLSCADSGNIFYWNTMGWYRQAPGKERELVATISWSGRTTYYADSVKGRFTISRDNEKNTVYLQMNSLKPEDTAVYYCAADVTSGVYSFSFDYLGQGTQVTVSS | low polyreactivity
29 | QVQLVESGGGLVQAGGSLRLSCAASGSTFQGYDMGWYRQAPGKERELVAAINYSGGSTYYADSVKGRFTISRDNAKNTVYLQLNSLKPEDTAVFYCNADGYSQFWYEYYYCGQGTQVTVSS | high polyreactivity
30 | QVQIVESGGGLVQAGGSLRLSCAASGRIFGYNAMGWYRQAPGKERELVATITVGGGSTYYADSVKGRFTISRDNAKNTVYLQMNSLKPEDTAVYYCAADSGYQPVLHRGYYRFNYWGQGTQVTVSS | low polyreactivity
31 | QVQLVESGGGLVQAGGSLRLSCAASGFTFDYYTMGWYRQAPGKEREFVAAITWNGGTTNYADSVKGRFTISRDNAKYTVYLQMNSLKPEDTAVYYCAATAYWYFSNDSGRSYDYWGQGTQVTVSS | low polyreactivity
32 | QVQLVESGGGLVQAGGSLRLSCAASGSTFIFNTMGWYRQAPGKEREVVASITGDGRTNYADSVKGRFTISRDNAKNTVYLQMNSLKPEDTAVYYCAADGYDQYPLWAPPGDYWGQGTQVTVSS | low polyreactivity
33 | QVQRVESGGGLVQAGGRLRLSCAASGRTFETNAMGWYRQAPGKERELVAAISRSGGSTRYADSVKGRFTISRDNAKNTVYLQMNSLKPEDTAVYYCAVRVGLGGGYGGQGTQVTVSS | high polyreactivity
34 | QVKLVESGGGLVQAGGSLRLSCAASGRIFLWYAMGWYRQEPGKERELVAAISSNGGSTRYAHSVKGRFTISRDNAKNTVYLQMNSLKPEDTAVYYCNADVHWNRYPYGGNGYGYWGQGTQVTVSS | low polyreactivity
35 | QVQLVESGGGLVQAGGRLRLSCAASGSTIPRYAMGWSRQAPGKERELVAAITNGGSTNYADSVKGRFTISRDNAKNTVYLQMNSLKPEDTAVYYCAKRFGYRFYYGGQGTQVTVSS | high polyreactivity
36 | QVQLVESGGGLVQAGGSLRLSCAASGSTLVSNAMGWYIQAPGKEREFVAAINSSGSRTYYADSVKGRFTISRDNANNTVYLQMNSLKPEDTAVYYCAAGYWNDFDWGQVTQVTVSS | low polyreactivity
37 | QVQLVESGGGLVQAGGSLRLSCAASGSIFYANAMGWYRQAPGKERELVAAIDGGSTYYADSVKGRFTISRDNAKNTVYLQMNSLKPEDTAVYYCAADYFNYRGYTYLGDYWGQGTQVTVSS | low polyreactivity
38 | QVQLVESGGGLVQAGGSLRLSCAASGSSFVSYTMGWYRQAPGKERELVAAISYNGARTYYADSVKGRFTISRDNAKNTVYLQMNSLKPEDTAVYYCARRYYSQYDYWGQGTQVTVSS | high polyreactivity
39 | QVQLEESGAGLVQAGGSLRLCCAASGNTFSSNAMGLYTQAPGKEMELVAGITKSGGRTYYADSVKGRFTISRDNAQYTVYLHMNSLKPEDSAVFYCNRRAGPFSIQYYYWGQVTQVTVSS | high polyreactivity
40 | QVQLVESCGGLVQAGGSLRLSSAASGRIFYAYVMGWYRQAPGKERELVADITSSGSTNYADTVKGRFTISRDNAKKTVYLQLISLKQEDTAVFYCAKVPYGYQVRRNFGYWGQGTQVTVSS | low polyreactivity

From the nanobody polyreactivity screen of Harvey et al. (2022)
